Consider 12 molecules from publication PMC3168947 (Molecular cell, 2011).

Residue numbers refer to the chain shown, from its start. Numbers in names are those of the source. Where “and” joins values, the source holds several entries; their conditions need not be identical. Equal entries are not always repeated. Where two headings read alike, the source gives them in different places. No end group written: not given here.

For one data set, the target named is ClpA6 (Escherichia coli, UniProt P0A8Q6+P0ABH9, C101S/C73V/E96C). Type of data set: binding, E. coli. The following applies: for ClpA6 bound ClpS*^F more tightly, fold: excess peptide, compared with […] peptide or absence of ligand; for Kapp of ClpA6 for ClpS*^F in presence of peptide: fluorescence anisotropy, 200 nM ClpS*^F, 20 μM peptide, ATPγS, Fig. 3A. Background: Polarisation of emitted light reports the rotation of a fluorescent probe.

Data set [1] concerns the target fluorescent N-end-rule peptide …-fl. As to the kind of experiment: fluorescence polarisation.
The target in data set [2] is ClpS*^F variant with NTE deletion (E. coli). In words: fluorescence polarisation.
Another data set concerns ClpAP. As to the kind of experiment: ClpAPS degradation of YLFVQELA-GFP. The class given is biochemical, E. coli. The following applies: for K2 (unimolecular engagement step, global fit): YLFVQELA-GFP degradation, Vmax = Etotal•kdeg/(1+K2), KM = K1•K2/(1+K2); for K2 (unimolecular engagement step, global fit) / steady-state degradation kinetics, in words / reduction in Vmax compared to ClpS, fold: Fig. 4B; for steady-state degradation kinetics, in words / reduction in Vmax compared to ClpS, fold: 100 nM ClpA6, 200 nM ClpP14; for steady-state degradation kinetics, in words: 600 nM ClpS or variants; for reduction in Vmax compared to ClpS, fold: 600 nM ClpS variant.

Data set [3] concerns the target T1, fluorescent N-end-rule peptide LLYVQRDSKEC-fl.
T1 peptide: LLYVQRDSKEC(fluorescein maleimide)
As to the kind of experiment: fluorescence polarisation.

In data set [4] the target is T2, ClpA6 (hexameric ClpA unfoldase, stabilised by ATPγS) (E. coli, UniProt P0ABH9 1-758).
T2 sequence (looked up): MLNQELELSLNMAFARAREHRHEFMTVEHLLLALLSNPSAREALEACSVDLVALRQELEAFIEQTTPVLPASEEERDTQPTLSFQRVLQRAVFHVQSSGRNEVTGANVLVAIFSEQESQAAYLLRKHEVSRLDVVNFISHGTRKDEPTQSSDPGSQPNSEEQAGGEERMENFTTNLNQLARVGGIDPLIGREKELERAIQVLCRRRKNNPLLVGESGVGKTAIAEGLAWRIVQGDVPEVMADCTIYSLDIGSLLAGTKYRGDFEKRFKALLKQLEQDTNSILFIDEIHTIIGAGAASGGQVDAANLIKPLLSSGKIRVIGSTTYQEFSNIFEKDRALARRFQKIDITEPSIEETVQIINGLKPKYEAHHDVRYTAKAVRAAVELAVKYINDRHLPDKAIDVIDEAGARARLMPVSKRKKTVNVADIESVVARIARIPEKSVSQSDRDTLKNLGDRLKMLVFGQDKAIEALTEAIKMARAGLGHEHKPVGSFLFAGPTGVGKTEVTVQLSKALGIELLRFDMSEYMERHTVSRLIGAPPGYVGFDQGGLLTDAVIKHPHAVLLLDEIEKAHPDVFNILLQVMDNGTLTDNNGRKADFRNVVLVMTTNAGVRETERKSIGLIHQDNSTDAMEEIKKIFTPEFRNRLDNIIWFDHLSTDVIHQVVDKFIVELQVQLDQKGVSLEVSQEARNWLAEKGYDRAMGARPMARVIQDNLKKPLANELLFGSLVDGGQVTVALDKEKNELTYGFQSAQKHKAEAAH
As to the kind of experiment: fluorescence polarisation.

For data set [5], the target named is T2, ClpA6 (hexameric ClpA unfoldase, …). In words: fluorescence polarisation. This is another data set of the same source.
For data set [6] the target is unchanged. In words: fluorescence polarisation. The source holds these as a separate data set.
Data set [7] has the same target. As to the kind of experiment: fluorescence polarisation. The source holds these as a separate data set.

On to Phe-Val [FV], for which, at ClpA6, the “ClpA6 bound ClpS*^F more tightly, fold” value was “at least 9 fold” and the “Kapp of ClpA6 for ClpS*^F in presence of peptide” value is given as less than 20 nM.

Consider “ClpS in complex with the ClpA N domain (from UniProt P0A8Q6 1-106)”, for which the Kd (commonly the constant that tells how readily two partners part at equilibrium) in data set [1] amounted to 3 µM.

For the molecule Trp-CONH2, the “ClpA6 bound ClpS*^F more tightly, fold” value at ClpA6 is listed as “at least 9 fold”.

For MLYVQRDSKEC, the “Kapp of ClpA6 for ClpS*^F in presence of peptide” value at ClpA6 is recorded as ~ 180 nM.

B1: ClpA6 (hexameric ClpA unfoldase, stabilised by ATPγS) (enzyme)
chain: T2 sequence (looked up)
Turning to B1, the fold reduction of affinity against ClpS*^F in data set [2] turned out to be 10 fold.

B2: *L13 ClpS with ClpA6 (complex, E. coli)
chain 1: T2 sequence (looked up)
chain 2: MLAEEKVRDALKPPSMYKVILVNDDYTPMEFVIDVLQKFFSYDVERATQLMLAVHYQGKAICGVFTAEVAETKVAMVNKYARENEHPLLCTLEKA
Take B2: the “K2 (unimolecular engagement step, global fit)” value in the data set on ClpAP came out at 0.74. In the data set with ClpAP (YLFVQELA-GFP), the “steady-state degradation kinetics, in words” value is listed as “roughly similar steady-state degradation kinetics” and the “reduction in Vmax compared to ClpS, fold” value amounted to 1.3 fold. The “delivery of N-end-rule substrate for ClpAP degradation” value in the data set with ClpAP (YLFVQELA-GFP, ClpS variants, in words) is “mediated efficient substrate degradation”. This molecule came in with a Kd in data set [3] of 0.1 µM.

B3: *V18 ClpS with ClpA6 (complex, E. coli)
chain 1: T2 sequence (looked up)
chain 2: MVRDALKPPSMYKVILVNDDYTPMEFVIDVLQKFFSYDVERATQLMLAVHYQGKAICGVFTAEVAETKVAMVNKYARENEHPLLCTLEKA
Turning to B3, the Kd in [3] was 0.083 µM.

B4: *A14 ClpS with ClpA6 (complex, E. coli)
chain 1: T2 sequence (looked up)
chain 2: MAEEKVRDALKPPSMYKVILVNDDYTPMEFVIDVLQKFFSYDVERATQLMLAVHYQGKAICGVFTAEVAETKVAMVNKYARENEHPLLCTLEKA
As for B4, the “K2 (unimolecular engagement step, global fit)” value in the data set on ClpAP was determined as 9.2. In the data set on ClpAP (YLFVQELA-GFP), the “steady-state degradation kinetics, in words” value is recorded as “substantial decrease in Vmax” and the “reduction in Vmax compared to ClpS, fold” value was found to be 7.5 fold. This molecule came in with a Kd in data set [3] of 0.13 µM.

B5: ClpS*^F (ClpS C73V; C101S; E96C labelled with fluorescein) (natural protein, E. coli, UniProt P0A8Q6 1-106, looked up)
chain: MGKTNDWLDFDQLAEEKVRDALKPPSMYKVILVNDDYTPMEFVIDVLQKFFSYDVERATQLMLAVHYQGKAIVGVFTAEVAETKVAMVNKYARENCHPLLSTLEKA
modifications: fluorescein maleimide on the single cysteine
Take B5: the Kd in data set [4] was roughly 0.18 µM; in data set [5], 0.2 ± 0.006 µM; in data set [6], less than 0.02 µM.

B6: ^H66AClpS*^F (natural protein, E. coli, UniProt P0A8Q6 1-106, looked up)
chain: B5 chain with H66A
modifications: fluorescein maleimide on the single cysteine
In turn, B6 came in with a Kd in data set [5] of 0.345 ± 0.003 µM.

B7: ^H66AClpS*^F bound to the N-end-rule peptide LLYVQRDSKEC (complex, E. coli)
chain: B5 chain with H66A
peptide: LLYVQRDSKEC
modifications: fluorescein maleimide on the single cysteine
B7 showed a Kd in data set [7] of 0.178 ± 0.004 µM.

B8: ClpS*^F bound to the N-end-rule peptide LLYVQRDSKEC (complex, E. coli)
chain: B5 chain
peptide: LLYVQRDSKEC
modifications: fluorescein maleimide on the single cysteine
Consider B8, for which the Kd in data set [7] is < 0.02 µM and 0.02 µM.
